Experiments:
[1] = target: T1, human LILRB5 on HEK293-6E cells (human, UniProt O75023 24-590); assay: flow cytometry, HEK293-6E transfectants
T1 construct: whole, on cells; also called hLILRB5
In short: (§1)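 Antibody binding measured by flow cytometry on HEK293-6E cells transiently transfected with individual human LILRB (1–5) or LILRA (1, 2, 4, 5, 6) plasmids. Antibodies tested at 1 μg/mL.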

[2] = target: T2, human LILRA2 on HEK293-6E cells (human, UniProt Q8N149 24-483); assay: flow cytometry, HEK293-6E transfectants
T2 construct: whole, on cells; also called hLILRA2
In short: as §1

[3] = target: T3, human LILRA6 on HEK293-6E cells (human, UniProt Q6PI73 24-481); assay: flow cytometry, HEK293-6E transfectants
T3 construct: whole, on cells; also called hLILRA6
In short: as §1

[4] = target: T4, human LILRA5 on HEK293-6E cells (human, UniProt A6NI73 42-299); assay: flow cytometry, HEK293-6E transfectants
T4 construct: whole, on cells; also called hLILRA5
In short: as §1

[5] = target: T5, human LILRA1 on HEK293-6E cells (human, UniProt O75019 17-489); assay: flow cytometry, HEK293-6E transfectants
T5 construct: whole, on cells; also called hLILRA1
In short: as §1

[6] = target: T6, human LILRA4 on HEK293-6E cells (human, UniProt P59901 24-499); assay: flow cytometry, HEK293-6E transfectants
T6 construct: whole, on cells; also called hLILRA4
In short: as §1

[7] = target: T7, human LILRB3 on HEK293-6E cells (human, UniProt O75022 24-631); assay: flow cytometry, HEK293-6E transfectants
T7 construct: whole, on cells; also called hLILRB3
In short: as §1

human LILRB1 on cells [8] = target: T8, human LILRB1 on cells (human, UniProt Q8NHL6 24-650); assay: flow cytometry, HEK293-6E transfectants
T8 construct: whole, on cells; also called hLILRB1; LILRB1-expressing 721.221 cells
In short: as §1

[9] = target: T9, human LILRB4 on HEK293-6E cells (human, UniProt Q8NHJ6 22-448); assay: flow cytometry, HEK293-6E transfectants
T9 construct: whole, on cells; also called hLILRB4
In short: as §1

human LILRB2 on cells [10] = target: T10, human LILRB2 on cells (human, UniProt Q8N423 22-597); assay: flow cytometry, HEK293-6E transfectants
T10 construct: whole, on cells; also called hLILRB2; LILRB2-HEK293T
In short: as §1

[11] = target: T11, recombinant cynomolgus LILRB1 (cynomolgus); assay: MSD ELISA, coated antigen, purified IgG1
T11 construct: Bought protein

[12] = target: T12, recombinant human LILRB1-His (human, UniProt Q8NHL6 24-458); assay: MSD ELISA, coated antigen, purified IgG1
T12 construct: Bought protein; also called LILRB1 protein

[13] = target: T13, recombinant human LILRB2-His (human, UniProt Q8N423 22-461, limits assumed); assay: MSD ELISA, coated antigen, purified IgG1
T13 construct: Bought protein; also called LILRB2 protein

human LILRB2 on cells [14] = target: T10, human LILRB2 on cells; assay: flow cytometry, LILRB2-HEK293T cells, AF647-labelled antibody
In short: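 Cells were blocked 30 min at 4° C in FACS buffer with 10% FBS and 0.5 mg/mL human IgG1. AF647-labelled antibodies were then bound for 1 h at 4° C. After Zombie Violet viability staining, binding was read by flow cytometry.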

human LILRB1 on cells [15] = target: T8, human LILRB1 on cells; assay: flow cytometry, 721.221 cells, AF647-labelled antibody
Protocol: While LILRB2 expression is mostly restricted to myeloid cells, LILRB1 has a broader expression on immune cell subsets, including B cells, T cells and NK cells.
Frozen cells were removed from storage in vapor phase liquid nitrogen and thawed by gentle swirling in a water bath at 37° C., then resuspended in DMEM media with 10% FBS. Cells were placed in a 15 mL conical tube and centrifuged at 300×g for 5 min, then supernatant was removed. Cells were resuspended in DMEM+10% FBS at a cell density of 2×10⁵ cells/mL in a T75 flask for culturing, and incubated at 37° C., 5% CO₂ for 3 days before passaging. Cells were passaged when the cell density reached 1×10⁶ cell/mL. On the day of the assay, cells were centrifuged, then supernatant was removed. Cells were resuspended in Blocking Buffer B (FACS Buffer containing 10% FBS and 0.5 mg/mL human IgG1 (Athens Research, No. 16-16-090707-1M)+0.05% NaN₃, 5% (w/v)) in a 15 mL conical tube, then incubated at 4° C. for 30 min. […] Cells were incubated with antibodies at 4° C. for 1 h. Cells were washed twice in FACS Buffer (PBS containing 2 mM EDTA+1% FBS+0.05% NaN₃) and then stained with for 10 min with Zombie Violet™ fixable viability dye (BioLegend, No. 423114) at RT, washed with FACS Buffer and resuspend in 75 μL of FACS Buffer for acquisition on a BD FACSymphony™ or BD FACSCanto™ II flow cytometer (BD Biosciences), as described in Example 6.

T12 sequence (Q8NHL6 24-458 limits assumed): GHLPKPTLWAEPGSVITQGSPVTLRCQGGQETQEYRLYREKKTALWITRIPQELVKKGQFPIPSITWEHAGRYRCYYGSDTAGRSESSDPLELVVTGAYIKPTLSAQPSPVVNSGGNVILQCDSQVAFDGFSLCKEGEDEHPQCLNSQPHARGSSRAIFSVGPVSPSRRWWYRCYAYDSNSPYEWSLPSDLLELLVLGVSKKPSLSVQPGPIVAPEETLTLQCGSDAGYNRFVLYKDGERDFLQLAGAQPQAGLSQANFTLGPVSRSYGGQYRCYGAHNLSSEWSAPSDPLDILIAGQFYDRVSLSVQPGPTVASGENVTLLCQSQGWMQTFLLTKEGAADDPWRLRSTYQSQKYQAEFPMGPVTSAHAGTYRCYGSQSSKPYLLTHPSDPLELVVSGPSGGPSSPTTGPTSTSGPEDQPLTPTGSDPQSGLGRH
T4 sequence (A6NI73 42-299): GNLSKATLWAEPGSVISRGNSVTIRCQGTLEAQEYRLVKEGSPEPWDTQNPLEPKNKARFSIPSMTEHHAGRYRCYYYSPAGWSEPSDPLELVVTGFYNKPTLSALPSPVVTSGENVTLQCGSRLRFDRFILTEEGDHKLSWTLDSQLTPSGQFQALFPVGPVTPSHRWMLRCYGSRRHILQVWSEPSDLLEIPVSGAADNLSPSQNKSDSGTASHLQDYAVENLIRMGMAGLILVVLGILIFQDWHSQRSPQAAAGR
T8 sequence (Q8NHL6 24-650): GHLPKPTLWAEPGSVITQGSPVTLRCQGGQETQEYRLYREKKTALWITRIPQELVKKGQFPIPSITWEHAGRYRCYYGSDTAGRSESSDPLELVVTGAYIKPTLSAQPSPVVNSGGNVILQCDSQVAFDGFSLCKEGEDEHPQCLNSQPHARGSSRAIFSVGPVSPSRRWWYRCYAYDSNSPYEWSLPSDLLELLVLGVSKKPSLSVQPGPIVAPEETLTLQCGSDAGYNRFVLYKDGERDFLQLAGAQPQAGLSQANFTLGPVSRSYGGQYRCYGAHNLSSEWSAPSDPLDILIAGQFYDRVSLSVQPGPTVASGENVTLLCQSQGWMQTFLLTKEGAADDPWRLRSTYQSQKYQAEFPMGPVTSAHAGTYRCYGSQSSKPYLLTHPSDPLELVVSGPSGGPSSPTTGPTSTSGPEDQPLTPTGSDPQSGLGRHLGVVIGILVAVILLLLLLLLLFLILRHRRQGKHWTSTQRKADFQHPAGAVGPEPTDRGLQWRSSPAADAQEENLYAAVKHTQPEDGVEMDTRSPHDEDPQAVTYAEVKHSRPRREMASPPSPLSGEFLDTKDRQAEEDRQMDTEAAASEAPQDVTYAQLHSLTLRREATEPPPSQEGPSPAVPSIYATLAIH
T3 sequence (Q6PI73 24-481): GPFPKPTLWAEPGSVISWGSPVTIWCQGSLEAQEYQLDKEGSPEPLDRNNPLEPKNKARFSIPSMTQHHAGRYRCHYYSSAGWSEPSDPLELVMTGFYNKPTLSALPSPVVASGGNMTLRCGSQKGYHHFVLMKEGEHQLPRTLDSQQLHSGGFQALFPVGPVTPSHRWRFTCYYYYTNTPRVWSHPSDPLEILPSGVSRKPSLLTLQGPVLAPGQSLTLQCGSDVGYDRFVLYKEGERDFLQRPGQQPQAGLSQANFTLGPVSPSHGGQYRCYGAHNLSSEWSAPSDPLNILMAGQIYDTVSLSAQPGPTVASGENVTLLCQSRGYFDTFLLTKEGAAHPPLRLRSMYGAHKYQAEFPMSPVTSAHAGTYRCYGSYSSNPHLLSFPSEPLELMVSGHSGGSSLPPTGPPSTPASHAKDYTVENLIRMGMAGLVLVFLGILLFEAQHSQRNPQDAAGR
T2 sequence (Q8N149 24-483): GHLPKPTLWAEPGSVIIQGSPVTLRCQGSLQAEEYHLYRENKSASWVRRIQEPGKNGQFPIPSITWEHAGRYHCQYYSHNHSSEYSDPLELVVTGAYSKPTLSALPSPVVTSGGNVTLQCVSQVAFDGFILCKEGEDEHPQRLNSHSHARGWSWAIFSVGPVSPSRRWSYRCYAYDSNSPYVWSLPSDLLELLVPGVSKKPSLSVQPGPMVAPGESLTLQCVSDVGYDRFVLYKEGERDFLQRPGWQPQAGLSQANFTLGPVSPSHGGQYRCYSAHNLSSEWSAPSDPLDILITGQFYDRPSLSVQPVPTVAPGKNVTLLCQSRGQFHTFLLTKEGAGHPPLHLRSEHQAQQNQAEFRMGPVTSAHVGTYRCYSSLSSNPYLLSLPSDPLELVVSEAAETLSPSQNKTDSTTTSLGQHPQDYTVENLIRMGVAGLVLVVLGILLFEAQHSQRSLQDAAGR
T13 sequence (Q8N423 22-461 limits assumed): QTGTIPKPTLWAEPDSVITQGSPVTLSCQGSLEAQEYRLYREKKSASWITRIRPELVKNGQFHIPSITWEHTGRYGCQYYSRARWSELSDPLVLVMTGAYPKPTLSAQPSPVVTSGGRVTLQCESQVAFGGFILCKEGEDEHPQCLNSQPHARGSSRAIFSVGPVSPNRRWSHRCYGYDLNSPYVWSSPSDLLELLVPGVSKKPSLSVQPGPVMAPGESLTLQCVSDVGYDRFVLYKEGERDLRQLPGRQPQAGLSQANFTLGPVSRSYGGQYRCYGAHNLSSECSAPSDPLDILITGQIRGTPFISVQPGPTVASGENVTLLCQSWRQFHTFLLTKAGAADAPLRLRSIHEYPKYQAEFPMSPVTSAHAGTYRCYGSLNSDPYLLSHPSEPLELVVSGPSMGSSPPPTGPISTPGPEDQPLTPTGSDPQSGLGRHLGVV
T6 sequence (P59901 24-499): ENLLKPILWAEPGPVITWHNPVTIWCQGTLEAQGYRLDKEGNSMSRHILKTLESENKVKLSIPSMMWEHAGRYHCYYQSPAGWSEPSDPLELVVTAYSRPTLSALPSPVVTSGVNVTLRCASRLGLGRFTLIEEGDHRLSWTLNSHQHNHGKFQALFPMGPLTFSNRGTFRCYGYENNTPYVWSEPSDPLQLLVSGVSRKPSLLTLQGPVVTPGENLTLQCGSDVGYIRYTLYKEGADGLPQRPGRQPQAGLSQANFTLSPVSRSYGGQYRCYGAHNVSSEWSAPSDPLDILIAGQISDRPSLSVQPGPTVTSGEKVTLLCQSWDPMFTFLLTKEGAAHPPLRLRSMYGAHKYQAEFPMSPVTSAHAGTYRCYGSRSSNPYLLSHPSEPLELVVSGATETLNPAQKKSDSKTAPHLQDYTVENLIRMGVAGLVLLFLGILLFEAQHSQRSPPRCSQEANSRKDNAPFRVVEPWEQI
T7 sequence (O75022 24-631): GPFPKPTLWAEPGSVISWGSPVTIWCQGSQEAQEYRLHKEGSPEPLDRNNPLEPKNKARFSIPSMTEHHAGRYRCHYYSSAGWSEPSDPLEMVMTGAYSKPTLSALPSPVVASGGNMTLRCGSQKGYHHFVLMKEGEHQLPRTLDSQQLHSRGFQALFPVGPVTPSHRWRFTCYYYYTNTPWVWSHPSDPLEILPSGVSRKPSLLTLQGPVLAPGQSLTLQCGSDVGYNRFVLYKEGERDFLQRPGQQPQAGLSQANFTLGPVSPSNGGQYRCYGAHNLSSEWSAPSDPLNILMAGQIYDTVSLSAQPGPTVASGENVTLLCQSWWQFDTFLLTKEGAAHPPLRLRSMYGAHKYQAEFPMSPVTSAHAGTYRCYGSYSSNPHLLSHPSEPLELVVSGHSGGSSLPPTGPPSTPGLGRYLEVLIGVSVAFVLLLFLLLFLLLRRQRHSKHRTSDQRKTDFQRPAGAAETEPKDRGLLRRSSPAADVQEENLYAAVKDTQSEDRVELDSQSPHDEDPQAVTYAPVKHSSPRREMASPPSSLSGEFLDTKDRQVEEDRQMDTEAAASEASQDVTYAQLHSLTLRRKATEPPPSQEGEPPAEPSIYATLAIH
T5 sequence (O75019 17-489): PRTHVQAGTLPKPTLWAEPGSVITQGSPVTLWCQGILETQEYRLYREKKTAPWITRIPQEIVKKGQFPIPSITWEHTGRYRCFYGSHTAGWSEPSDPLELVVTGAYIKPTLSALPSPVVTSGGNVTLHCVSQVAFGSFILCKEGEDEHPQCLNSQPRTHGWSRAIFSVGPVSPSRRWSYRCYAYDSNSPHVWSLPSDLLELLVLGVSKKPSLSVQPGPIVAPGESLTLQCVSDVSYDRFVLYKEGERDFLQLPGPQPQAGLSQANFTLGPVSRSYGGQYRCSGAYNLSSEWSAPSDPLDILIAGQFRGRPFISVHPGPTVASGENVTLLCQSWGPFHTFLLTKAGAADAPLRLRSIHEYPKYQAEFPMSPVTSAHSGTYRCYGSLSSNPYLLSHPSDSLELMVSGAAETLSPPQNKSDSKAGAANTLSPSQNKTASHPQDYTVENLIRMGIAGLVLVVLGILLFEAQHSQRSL
T10 sequence (Q8N423 22-597): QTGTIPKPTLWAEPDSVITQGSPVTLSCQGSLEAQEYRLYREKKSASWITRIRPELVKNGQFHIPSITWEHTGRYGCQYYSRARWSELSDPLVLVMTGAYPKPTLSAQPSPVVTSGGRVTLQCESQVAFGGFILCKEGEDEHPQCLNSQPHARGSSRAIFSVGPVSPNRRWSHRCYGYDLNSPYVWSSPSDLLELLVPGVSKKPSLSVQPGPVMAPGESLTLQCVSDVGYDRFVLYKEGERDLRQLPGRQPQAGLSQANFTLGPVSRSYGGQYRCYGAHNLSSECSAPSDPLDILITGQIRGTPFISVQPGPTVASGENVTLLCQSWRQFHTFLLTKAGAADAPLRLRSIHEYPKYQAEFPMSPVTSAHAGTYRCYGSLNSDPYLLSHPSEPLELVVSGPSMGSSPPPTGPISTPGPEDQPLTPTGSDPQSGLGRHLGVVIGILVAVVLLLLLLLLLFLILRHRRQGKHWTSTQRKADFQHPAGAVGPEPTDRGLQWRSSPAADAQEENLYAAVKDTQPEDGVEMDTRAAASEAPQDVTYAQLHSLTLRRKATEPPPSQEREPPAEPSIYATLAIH

Binder	MFI [1]	binding result [1]	MFI [2]	binding result [2]	MFI [3]	binding result [3]	MFI [4]	binding result [4]	MFI [5]	binding result [5]	MFI [6]	binding result [6]	MFI [7]	binding result [7]	MFI (human LILRB1 on cells [8])	MFI [9]	binding result [9]	MFI (human LILRB2 on cells [10])	EC50 [11]	EC50 [12]	further results
B21H1-55 (antibody, human IgG1, kappa, humanized IgG1/kappa, VH5+VL5) heavy: not shown light: DIQMTQTPSTVEASVGGTVTITCQASGNIYSFLAWYQQKPGQPPKLLIYTASNLETGVPSRFSGSGSGTEYTLTISGLQSDDAATYYCLGGLYSSDVSYAFGGGTEVVVKRTVAAPSVFIFPPSDEQLKSGTASVVCLLNNFYPREAKVQWKVDNALQSGNSQESVTEQDSKDSTYSLSSTLTLSKADYEKHKVYACEVTHQGLSSPVTKSFNRGEC	94.8 MFI	no binding (tested: 1 µg/mL)	27.9 MFI	no binding (tested: 1 µg/mL)	148 MFI	no binding (tested: 1 µg/mL)	77.4 MFI	no binding (tested: 1 µg/mL)	332 MFI	no binding (tested: 1 µg/mL)	144 MFI	no binding (tested: 1 µg/mL)	108 MFI	no binding (tested: 1 µg/mL)	1030 MFI	33.5 MFI	no binding (tested: 1 µg/mL)	4120 MFI	0.25 mg/L	0.00944 mg/L	EC50 [13]: 0.0369 mg/L; EC50 (human LILRB2 on cells [14]): 0.00071 mg/L; EC50 (human LILRB1 on cells [15]): 0.0507 mg/L
B21H1-24 (antibody, human IgG1, kappa, humanized IgG1/kappa, VH2+VL4) heavy: not shown light: DVVMTQSPSTVSASVGDRVTLTCQASGNIYSFLAWYQQKPGQPPKLLIYTASNLETGVPDRFSGSGSGTDYTLTISSLQADDFATYYCLGGLYSSDVSYAFGQGTKVEIKRTVAAPSVFIFPPSDEQLKSGTASVVCLLNNFYPREAKVQWKVDNALQSGNSQESVTEQDSKDSTYSLSSTLTLSKADYEKHKVYACEVTHQGLSSPVTKSFNRGEC	87 MFI	no binding (tested: 1 µg/mL)	25.6 MFI	no binding (tested: 1 µg/mL)	141 MFI	no binding (tested: 1 µg/mL)	74.5 MFI	no binding (tested: 1 µg/mL)	246 MFI	no binding (tested: 1 µg/mL)	125 MFI	no binding (tested: 1 µg/mL)	86.2 MFI	no binding (tested: 1 µg/mL)	985 MFI	28.6 MFI	no binding (tested: 1 µg/mL)	6050 MFI	0.286 mg/L	0.00864 mg/L	EC50 [13]: 0.0287 mg/L; EC50 (human LILRB2 on cells [14]): 0.00142 mg/L; EC50 (human LILRB1 on cells [15]): 0.0595 mg/L
B21H1-11 (antibody, human IgG1, kappa, humanized IgG1/kappa, VH1+VL1) heavy: not shown light: DIQMTQSPSTLSASVGDRVTITCQASGNIYSFLAWYQQKPGKAPKLLIYTASNLETGVPSRFSGSGSGTEYTLTISSLQPDDFATYYCLGGLYSSDVSYAFGPGTKVEIKRTVAAPSVFIFPPSDEQLKSGTASVVCLLNNFYPREAKVQWKVDNALQSGNSQESVTEQDSKDSTYSLSSTLTLSKADYEKHKVYACEVTHQGLSSPVTKSFNRGEC	93.4 MFI	no binding (tested: 1 µg/mL)	27.8 MFI	no binding (tested: 1 µg/mL)	152 MFI	no binding (tested: 1 µg/mL)	76 MFI	no binding (tested: 1 µg/mL)	244 MFI	no binding (tested: 1 µg/mL)	140 MFI	no binding (tested: 1 µg/mL)	102 MFI	no binding (tested: 1 µg/mL)	1000 MFI	32.4 MFI	no binding (tested: 1 µg/mL)	5090 MFI	4.4 mg/L	0.00734 mg/L	EC50 [13]: 0.0306 mg/L; EC50 (human LILRB2 on cells [14]): 0.00107 mg/L; EC50 (human LILRB1 on cells [15]): 0.203 mg/L
B21H1-43 (antibody, human IgG1, kappa, humanized IgG1/kappa, VH4+VL3) heavy: not shown light: DIVMTQSPSSVSASVGDRVTITCQASGNIYSFLAWYQQKPGKAPKLLIYTASNLETGVPSRFSGSGSGTDFTLTISSLQPEDFATYYCLGGLYSSDVSYAFGGGTKVVIKRTVAAPSVFIFPPSDEQLKSGTASVVCLLNNFYPREAKVQWKVDNALQSGNSQESVTEQDSKDSTYSLSSTLTLSKADYEKHKVYACEVTHQGLSSPVTKSFNRGEC	85.5 MFI	no binding (tested: 1 µg/mL)	25.2 MFI	no binding (tested: 1 µg/mL)	141 MFI	no binding (tested: 1 µg/mL)	71.8 MFI	no binding (tested: 1 µg/mL)	220 MFI	no binding (tested: 1 µg/mL)	114 MFI	no binding (tested: 1 µg/mL)	79.2 MFI	no binding (tested: 1 µg/mL)	1120 MFI	26.5 MFI	no binding (tested: 1 µg/mL)	6370 MFI	1.51 mg/L	0.00734 mg/L	EC50 [13]: 0.0248 mg/L; EC50 (human LILRB2 on cells [14]): 0.00135 mg/L; EC50 (human LILRB1 on cells [15]): 0.0515 mg/L
B21H1-32 (antibody, human IgG1, kappa, humanized IgG1/kappa, VH3+VL2) heavy: not shown light: DIQMTQSPSSLSASVGDRVTITCQASGNIYSFLAWYQQKPGKVPKLLIYTASNLETGVPSRFSGSGSGTDYTLTISSLQSEDAATYYCLGGLYSSDVSYAFGGGTKVVIKRTVAAPSVFIFPPSDEQLKSGTASVVCLLNNFYPREAKVQWKVDNALQSGNSQESVTEQDSKDSTYSLSSTLTLSKADYEKHKVYACEVTHQGLSSPVTKSFNRGEC	87.9 MFI	no binding (tested: 1 µg/mL)	27.8 MFI	no binding (tested: 1 µg/mL)	142 MFI	no binding (tested: 1 µg/mL)	74 MFI	no binding (tested: 1 µg/mL)	249 MFI	no binding (tested: 1 µg/mL)	126 MFI	no binding (tested: 1 µg/mL)	99.2 MFI	no binding (tested: 1 µg/mL)	1040 MFI	28.8 MFI	no binding (tested: 1 µg/mL)	5460 MFI	0.272 mg/L	0.00646 mg/L	EC50 [13]: 0.0219 mg/L; EC50 (human LILRB2 on cells [14]): 0.00123 mg/L; EC50 (human LILRB1 on cells [15]): 0.0518 mg/L
